Biological target: T1, γ-secretase cleavage of APP-C99 (CHAPS extracts of HeLa cell membranes) (Homo sapiens, UniProt P49768)
T1 construct: CHAPS extracts of HeLa cell membranes were incubated with the APP-C99flag-tagged substrate; endogenous in cells; host or cells: HeLa cell membranes (CHAPS extract)
Assay: cell-free assay of in vitro production of amyloid peptides (Aβ) from APP-C99flag-tagged substrate, SDS-PAGE/western blotting
Assay type: biochemical
Details: CHAPS extracts of HeLa cell membranes incubated with APP-C99flag-tagged substrate plus peptide; DMSO control; western blot with antibody recognizing Aβ (FIG. 6)
Source text: FIG. 6: Peptides that mimic the binding domains in PS1 or APP inhibit the in vitro production of amyloid peptides (Aβ). The PS1-APP binding is mediated by the C-terminus of PS1 (and the first transmembrane domain of PS1) and part of the APP transmembrane region downstream of the γ-secretase cleavage site (and bearing the FAD-associated mutations affecting the γ-secretase cleavage). Peptides mimicking these domains were synthesized as such or with a conserved transmembrane region (TMR) or palmityol group (palm) attached to it. The amino acid sequence of the transmembrane region is NH2-[…]-COOH (SEQ ID NO:20) and the origin of the TMR is fully described in PCT International Publication WO 02/00882. CHAPS extracts of HeLa cell membranes were incubated with the APP-C99flag-tagged substrate in the presence of DMSO (control) or the different peptides at the concentrations indicated (peptide). γ-secretase inhibitor (10 μM) was included as a positive control for Aβ inhibition. After the reaction, samples were analyzed by SDS-PAGE followed by western blotting using an antibody recognizing Aβ. […]
Fixed amounts of recombinant APP-C99 are mixed with cleared cell extracts (for example extracted with Triton X100, CHAPS, CHAPSO or Nonidet p40) and incubated overnight at 37° C. or 4° C. De novo formed Aβ is monitored by SDS/PAGE combined with western blotting. […]

T1 sequence (Q96BI3 whole entry, other chains not shown): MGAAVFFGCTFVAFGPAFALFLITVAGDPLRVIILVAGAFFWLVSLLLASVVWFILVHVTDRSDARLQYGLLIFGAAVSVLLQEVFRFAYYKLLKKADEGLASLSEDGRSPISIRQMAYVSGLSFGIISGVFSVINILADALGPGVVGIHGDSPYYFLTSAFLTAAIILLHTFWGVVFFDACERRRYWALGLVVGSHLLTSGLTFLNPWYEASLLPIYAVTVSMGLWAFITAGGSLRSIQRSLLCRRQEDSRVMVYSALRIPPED
T1 sequence (Q92542 34-709, other chains not shown, further chain): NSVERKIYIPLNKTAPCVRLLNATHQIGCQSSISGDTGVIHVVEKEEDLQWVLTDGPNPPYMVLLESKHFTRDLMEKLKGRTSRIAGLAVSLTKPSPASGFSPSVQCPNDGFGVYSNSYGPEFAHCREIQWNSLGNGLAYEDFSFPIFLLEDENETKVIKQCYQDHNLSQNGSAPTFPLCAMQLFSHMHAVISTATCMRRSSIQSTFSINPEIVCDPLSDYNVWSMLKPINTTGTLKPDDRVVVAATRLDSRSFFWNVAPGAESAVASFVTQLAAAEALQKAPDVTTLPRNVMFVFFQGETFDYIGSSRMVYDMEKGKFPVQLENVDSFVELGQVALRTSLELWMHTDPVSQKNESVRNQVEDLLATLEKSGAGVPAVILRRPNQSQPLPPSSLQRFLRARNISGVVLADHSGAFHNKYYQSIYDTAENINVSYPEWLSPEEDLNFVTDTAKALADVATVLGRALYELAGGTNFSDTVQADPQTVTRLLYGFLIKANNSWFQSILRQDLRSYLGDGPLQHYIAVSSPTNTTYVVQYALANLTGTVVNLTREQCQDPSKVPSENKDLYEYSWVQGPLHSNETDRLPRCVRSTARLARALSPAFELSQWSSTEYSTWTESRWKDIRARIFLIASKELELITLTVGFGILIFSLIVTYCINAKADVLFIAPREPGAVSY
T1 sequence (Q9NZ42 whole entry, other chains not shown, further chain): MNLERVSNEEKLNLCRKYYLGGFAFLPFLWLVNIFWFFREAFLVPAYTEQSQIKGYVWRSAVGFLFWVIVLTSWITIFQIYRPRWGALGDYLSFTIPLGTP

## NH2-ATVIVITLVMLK KKQ-TMR-COOH [SEQ ID NO:12]
  inhibition of in vitro Aβ production: highest inhibition

## NH2-VVIATVIVITLVMLKKKQ-TMR-COOH [SEQ ID NO:7]
  inhibition of in vitro Aβ production: highest inhibition

Reference: patent US7198903B2, “Binding domains between presenilins and their substrates as targets for drug screening” (Vlaams Interuniversitair Instituut voor Biotechnologie VZW, priority 2001, dated 2007)
